This is an account of results in US12104181B2, “Compositions and methods for treating viral infections targeting TRIM7” (THE BOARD OF REGENTS OF THE UNIVERSITY OF TEXAS SYSTEM, priority 2021, dated 2024).

Where “and” joins values, the source holds several entries; their conditions need not be identical. Identical values can stand only once.

The subject of the assay is coxsackievirus B3 (CVB3-GFP). In kind it is cell-based. Conditions: HeLa cells, replicate R1; for Percent Infected R1: GFP-positive cells within RFP-positive gate.

B1: TRIM72: human RING type E3 ligase expressed from lentiviral vector; listed twice (protein, UniProt Q6ZMU5 1-477, looked up)
Tripartite motif-containing …: MSAAPGLLHQELSCPLCLQLFDAPVTAECGHSFCRACLGRVAGEPAADGTVLCPCCQAPTRPQALSTNLQLARLVEGLAQVPQGHCEEHLDPLSIYCEQDRALVCGVCASLGSHRGHRLLPAAEAHARLKTQLPQQKLQLQEACMRKEKSVAVLEHQLVEVEETVRQFRGAVGEQLGKMRVFLAALEGSLDREAERVRGEAGVALRRELGSLNSYLEQLRQMEKVLEEVADKPQTEFLMKYCLVTSRLQKILAESPPPARLDIQLPIISDDFKFQVWRKMFRALMPALEELTFDPSSAHPSLVVSSSGRRVECSEQKAPPAGEDPRQFDKAVAVVAHQQLSEGEHYWEVDVGDKPRWALGVIAAEAPRRGRLHAVPSQGLWLLGLREGKILEAHVEAKEPRALRSPERRPTRIGLYLSFGDGVLSFYDASDADALVPLFAFHERLPRPVYPFFDVCWHDKGKNAQPLLLVGPEGAEA
Consider B1, for which the “Percent Infected R1” value is 60.2% and 88.1%; the “Z score R1” value was −0.361 and −0.01.

B2: TRIM75: human RING type E3 ligase expressed from lentiviral vector; listed twice (protein, UniProt A6NK02 1-468, looked up)
Tripartite motif-containing …: MAVAAALTGLQAEAKCSICLDYLSDPVTIECGHNFCRSCIQQSWLDLQELFPCPVCRHQCQEGHFRSNTQLGRMIEIAKLLQSTKSNKRKQEETTLCEKHNQPLSVFCKEDLMVLCPLCTQPPDHQGHHVRPIEKAAIHYRKRFCSYIQPLKKQLADLQKLISTQSKKPLELREMVENQRQELSSEFEHLNQFLDREQQAVLSRLAEEEKDNQQKLSANITAFSNYSATLKSQLSKVVELSELSELELLSQIKIFYESENESSPSIFSIHLKRDGCSFPPQYSALQRIIKKFKVEIILDPETAHPNLIVSEDKKRVRFTKRKQKVPGFPKRFTVKPVVLGFPYFHSGRHFWEIEVGDKSEWAIGICKDSLPTKARRPSSAQQECWRIELQDDGYHAPGAFPTPLLLEVKARAIGIFLDYEMGEISFYNMAEKSHICTFTDTFTGPLRPYFYVGPDSQPLRICTGTVCE
For the molecule B2, the “Percent Infected R1” value was 66.8% and 89.7%; the “Z score R1” value is −0.277 and 0.01.

B3: TRIM74: human RING type E3 ligase expressed from lentiviral vector (protein, UniProt Q86UV6 1-250, looked up)
Tripartite motif-containing …: MAWQVSLLELEDWLQCPICLEVFKESLMLQCGHSYCKGCLVSLSYHLDTKVRCPMCWQVVDGSSSLPNVSLAWVIEALRLPGDPEPKVCVHHRNPLSLFCEKDQELICGLCGLLGSHQHHPVTPVSTVCSRMKEELAALFSELKQEQKKVDELIAKLVKNRTRIVNESDVFSWVIRREFQELRHPVDEEKARCLEGIGGHTRGLVASLDMQLEQAQGTRERLAQAECVLEQFGNEDHHEFIWKFHSMASR
modifications: lentiviral expression
notes: human RING type E3 ligase expressed from lentiviral vector
Take B3: the “Percent Infected R1” value turned out to be 71.6% and the “Z score R1” value was −0.216.

B4: TRIM67: human RING type E3 ligase expressed from lentiviral vector (protein, UniProt Q6ZTA4 1-783, looked up)
Tripartite motif-containing …: MEEELKCPVCGSLFREPIILPCSHNVCLPCARTIAVQTPDGEQHLPQPLLLSRGSGLQAGAAAAASLEHDAAAGPACGGAGGSAAGGLGGGAGGGGDHADKLSLYSETDSGYGSYTPSLKSPNGVRVLPMVPAPPGSSAAAARGAACSSLSSSSSSITCPQCHRSASLDHRGLRGFQRNRLLEAIVQRYQQGRGAVPGTSAAAAVAICQLCDRTPPEPAATLCEQCDVLYCSACQLKCHPSRGPFAKHRLVQPPPPPPPPAEAASGPTGTAQGAPSGGGGCKSPGGAGAGATGGSTARKFPTCPEHEMENYSMYCVSCRTPVCYLCLEEGRHAKHEVKPLGAMWKQHKAQLSQALNGVSDKAKEAKEFLVQLKNILQQIQENGLDYEACLVAQCDALVDALTRQKAKLLTKVTKEREHKLKMVWDQINHCTLKLRQSTGLMEYCLEVIKENDPSGFLQISDALIKRVQVSQEQWVKGALEPKVSAEFDLTLDSEPLLQAIHQLDFIQMKCRVPPVPLLQLEKCCTRNNSVTLAWRMPPFTHSPVDGYILELDDGAGGQFREVYVGKETLCTIDGLHFNSTYNARVKAFNSSGVGPYSKTVVLQTSDVAWFTFDPNSGHRDIILSNDNQTATCSSYDDRVVLGTAAFSKGVHYWELHVDRYDNHPDPAFGVARASVVKDMMLGKDDKAWAMYVDNNRSWFMHCNSHTNRTEGGVCKGATVGVLLDLNKHTLTFFINGQQQGPTAFSHVDGVFMPALSLNRNVQVTLHTGLEVPTNLGRPKLSGN
Regarding B4, the “Percent Infected R1” value is listed as 58.9% and the “Z score R1” value was −0.378.

B5: TRIM65: human RING type E3 ligase expressed from lentiviral vector (protein, UniProt Q6PJ69 2-517, looked up)
E3 ubiquitin-protein ligase …: AAQLLEEKLTCAICLGLYQDPVTLPCGHNFCGACIRDWWDRCGKACPECREPFPDGAELRRNVALSGVLEVVRAGPARDPGPDPGPGPDPAARCPRHGRPLELFCRTEGRCVCSVCTVRECRLHERALLDAERLKREAQLRASLEVTQQQATQAEGQLLELRKQSSQIQNSACILASWVSGKFSSLLQALEIQHTTALRSIEVAKTQALAQARDEEQRLRVHLEAVARHGCRIRELLEQVDEQTFLQESQLLQPPGPLGPLTPLQWDEDQQLGDLKQLLSRLCGLLLEEGSHPGAPAKPVDLAPVEAPGPLAPVPSTVCPLRRKLWQNYRNLTFDPVSANRHFYLSRQDQQVKHCRQSRGPGGPGSFELWQVQCAQSFQAGHHYWEVRASDHSVTLGVSYPQLPRCRLGPHTDNIGRGPCSWGLCVQEDSLQAWHNGEAQRLPGVSGRLLGMDLDLASGCLTFYSLEPQTQPLYTFHALFNQPLTPVFWLLEGRTLTLCHQPGAVFPLGPQEEVLS
As for B5, the “Percent Infected R1” value was determined as 56.8% and the “Z score R1” value is −0.404.

B6: TRIM68: human RING type E3 ligase expressed from lentiviral vector (protein, UniProt Q6AZZ1 1-485, looked up)
E3 ubiquitin-protein ligase …: MDPTALVEAIVEEVACPICMTFLREPMSIDCGHSFCHSCLSGLWEIPGESQNWGYTCPLCRAPVQPRNLRPNWQLANVVEKVRLLRLHPGMGLKGDLCERHGEKLKMFCKEDVLIMCEACSQSPEHEAHSVVPMEDVAWEYKWELHEALEHLKKEQEEAWKLEVGERKRTATWKIQVETRKQSIVWEFEKYQRLLEKKQPPHRQLGAEVAAALASLQREAAETMQKLELNHSELIQQSQVLWRMIAELKERSQRPVRWMLQDIQEVLNRSKSWSLQQPEPISLELKTDCRVLGLREILKTYAADVRLDPDTAYSRLIVSEDRKRVHYGDTNQKLPDNPERFYRYNIVLGSQCISSGRHYWEVEVGDRSEWGLGVCKQNVDRKEVVYLSPHYGFWVIRLRKGNEYRAGTDEYPILSLPVPPRRVGIFVDYEAHDISFYNVTDCGSHIFTFPRYPFPGRLLPYFSPCYSIGTNNTAPLAICSLDGED
On to B6, for which the “Percent Infected R1” value came out at 62% and the “Z score R1” value is listed as −0.338.

B7: RNF144B: human RING type E3 ligase expressed from lentiviral vector (protein, UniProt Q7Z419 1-303, looked up)
E3 ubiquitin-protein ligase …: MGSAGRLHYLAMTAENPTPGDLAPAPLITCKLCLCEQSLDKMTTLQECQCIFCTACLKQYMQLAIREGCGSPITCPDMVCLNHGTLQEAEIACLVPVDQFQLYQRLKFEREVHLDPYRTWCPVADCQTVCPVASSDPGQPVLVECPSCHLKFCSCCKDAWHAEVSCRDSQPIVLPTEHRALFGTDAEAPIKQCPVCRVYIERNEGCAQMMCKNCKHTFCWYCLQNLDNDIFLRHYDKGPCRNKLGHSRASVMWNRTQVVGILVGLGIIALVTSPLLLLASPCIICCVCKSCRGKKKKHDPSTT
modifications: lentiviral expression
notes: as for B3
B7: the “Percent Infected R1” value worked out at 93.9% and the “Z score R1” value came to 0.07.
